# Publication PMC10080908 (BMC Biology, 2023)
# B1: GST-TOPORS-RING (domain or fragment, human, UniProt Q9NS56 68-176, looked up)
# chain: MASAAKEFKMDNFSPKAGTSKLQQTVPADASPDSKCPICLDRFDNVSYLDRCLHKFCFRCVQEWSKNKAECPLCKQPFDSIFHSVRAEDDFKEYVLRPSYNGSFVTPDR
# notes: human TOPORS-RING (aa 68-176); the methods tell its cloning into p3xFlag-CMV-10 only, not into the GST vector; also called minimal RING domain of TOPORS; TOPORS RING domain; source: recombinant, on Glutathione Sepharose
# Experiments:
# [1] = target: T1, UBXN7-UAS recombinant protein (human, UniProt O94888 94-284); test: pull-down; in vitro: GST-RING domains on beads with UBE2D2, with or without UBXN7-UAS; Coomassie staining; details: both partners purified
# T1 construct: UAS domain of human UBXN7 (aa 94-284); also called UAS domain; source: E. coli BL21, purified (Glutathione Sepharose, released by GST-3C protease)
# T1 sequence (looked up): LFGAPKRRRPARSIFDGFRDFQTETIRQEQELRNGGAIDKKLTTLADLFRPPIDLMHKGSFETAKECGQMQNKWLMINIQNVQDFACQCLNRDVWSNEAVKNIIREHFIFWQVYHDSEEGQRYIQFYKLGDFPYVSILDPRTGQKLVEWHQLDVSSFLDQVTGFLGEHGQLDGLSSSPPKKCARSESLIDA
# UBE2D2 = target: T2, UBE2D2 (human, UniProt P62837 1-147); test: as above; details: both partners purified
# T2 construct: UBE2D2 without GST; probably released from GST-UBE2D2 by GST-3C protease as told in general for the PGEX4T3-3C constructs; also called recombinant UBE2D2; source: recombinant
binder,measurement,setting,value
B1,binding result,[1],binds
same,binding result,UBE2D2,binds
